Data reported in the supplement of paper PMC7125110.
± gives the standard error. For some of these results: Fewer inactive variants are shown than the library holds.

B1: glmS ribozyme (parent)
chain: AUAAAAGCGCCAGAACUACAGAAAUGUAGUUGACGAGGAGGAGGUUUAUCGAAUUUUCGGCGGAUGCCUCCAAA

Key:
Conditions in all cases: with glucosamine-6-phosphate
glucosamine-6-phosphate [1] = variants of: B1; assay: kcat; higher = faster cleavage; RNA array
Method in brief: (§1)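 Weighted Michaelis–Menten fits across concentrations supplied kcat and KM, based on kobs from one- or two-exponential decay fits to normalised per-tile medians. The data came from barcoded ribozyme variants transcribed in situ by E. coli RNA polymerase on sequenced MiSeq chips and tracked at 37 °C by a hybridised Cy3 probe. Glucosamine-6-phosphate (40 μM to 10 mM) in HEPES/KCl/Mg(OAc)2 buffer was flowed in.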

glucosamine-6-phosphate [2] = variants of: B1; assay: KM; higher = weaker cofactor use; RNA array
Method in brief: as §1

glucosamine-6-phosphate [3] = variants of: B1; assay: self-cleavage kobs at 640 uM GlcN6P; higher = faster cleavage; RNA array
Method in brief: as §1

glucosamine-6-phosphate [4] = variants of: B1; assay: self-cleavage kobs at 2500 uM GlcN6P; higher = faster cleavage; RNA array
Method in brief: as §1

glucosamine-6-phosphate [5] = variants of: B1; assay: self-cleavage kobs at 10000 uM GlcN6P; higher = faster cleavage; RNA array
Method in brief: as §1

glucosamine-6-phosphate [6] = variants of: B1; assay: self-cleavage kobs at 40 uM GlcN6P; higher = faster cleavage; RNA array
Method in brief: as §1

glucosamine-6-phosphate [7] = variants of: B1; assay: self-cleavage kobs at 160 uM GlcN6P; higher = faster cleavage; RNA array
Method in brief: as §1

Row | Variant | kcat (glucosamine-6-phosphate [1]) | KM (glucosamine-6-phosphate [2]) | self-cleavage kobs at 640 uM GlcN6P (glucosamine-6-phosphate [3]) | self-cleavage kobs at 2500 uM GlcN6P (glucosamine-6-phosphate [4]) | self-cleavage kobs at 10000 uM GlcN6P (glucosamine-6-phosphate [5]) | self-cleavage kobs at 40 uM GlcN6P (glucosamine-6-phosphate [6]) | self-cleavage kobs at 160 uM GlcN6P (glucosamine-6-phosphate [7])
1 | A15U U31G U47A | 0.000799 ± 0.00019 s⁻¹ | 5260 ± 2100 µM | 0.000105 ± 2.5e-05 s⁻¹ | 0.000221 ± 5.7e-05 s⁻¹ | 0.000537 ± 8.1e-05 s⁻¹ | – | –
2 | C16U U57C | 0.000329 ± 0.00013 s⁻¹ | – | 5.65e-05 ± 1.1e-05 s⁻¹ | 8.73e-05 ± 1.7e-05 s⁻¹ | 0.00024 ± 3.4e-05 s⁻¹ | – | –
3 | C16A C50A | < 1e-05 s⁻¹ | – | – | – | – | – | –
4 | G29A U46C | 0.00025 ± 1.1e-05 s⁻¹ | 1880 ± 160 µM | 6.39e-05 ± 2e-05 s⁻¹ | 0.000139 ± 3.1e-05 s⁻¹ | 0.000216 ± 6.1e-05 s⁻¹ | – | –
5 | A14U U45A | 0.0137 ± 0.0043 s⁻¹ | 1480 ± 610 µM | 0.00404 ± 0.00082 s⁻¹ | 0.00683 ± 0.0026 s⁻¹ | 0.0148 ± 0.004 s⁻¹ | 0.000446 ± 7.7e-05 s⁻¹ | 0.00102 ± 0.00029 s⁻¹
6 | A14G U49G | 0.00278 ± 0.00095 s⁻¹ | – | 0.000937 ± 0.00022 s⁻¹ | 0.00109 ± 0.0003 s⁻¹ | 0.00302 ± 0.00044 s⁻¹ | 7.8e-05 ± 1.6e-05 s⁻¹ | –
7 | A15C | 0.011 ± 0.00069 s⁻¹ | 1940 ± 150 µM | 0.00248 ± 0.0001 s⁻¹ | – | 0.00932 ± 0.00026 s⁻¹ | 0.000227 ± 4.1e-06 s⁻¹ | 0.00074 ± 5.5e-05 s⁻¹
8 | A15U | 0.0104 ± 0.0019 s⁻¹ | 1950 ± 440 µM | 0.00245 ± 8.9e-05 s⁻¹ | 0.00682 ± 0.00026 s⁻¹ | 0.00847 ± 0.00024 s⁻¹ | 0.000227 ± 4e-06 s⁻¹ | 0.00061 ± 2.2e-05 s⁻¹
